Source: patent US6512004B2, “Promoters of neural regeneration” (The Regents of the University of California, priority 1998, dated 2003)

Test system: growth cones of Xenopus spinal neurons
Assay: Growth cone turning in gradients of purified MAG or purified myelin
Type: cell-based
Conditions: purified MAG 150 μg/ml, purified myelin 25 μg/ml in the pipette; with or without Sp-cAMPS, 8-br-cGMP, low Ca2+
Experimental: FIG. 5. Growth cone turning induced by purified myelin. A gradient of purified myelin (25 μg/ml in the pipette) was applied in normal culture medium (open circles), in medium containing Sp-cAMPS (20 μM, solid circles), or 8-br-cGMP (100 μM, solid squares). Isolated symbols along the abscissa are median values for corresponding data shown above.
FIGS. 6A, 6B. Effects of purified myelin-associated glycoprotein (MAG) on growth cones of Xenopus spinal neurons. A gradient of purified MAG (150 μg/ml in the pipette) was applied in normal culture medium (open circles), in medium containing Sp-cAMPS (20 μM, solid circles), or in medium containing 8-br-cGMP (100 μM, solid squares). (A) Shown are distributions of turning angles under different conditions. Isolated symbols along the abscissa are median values for corresponding data shown above. (B) Shown are distributions of net neurite extension in the gradient under different conditions.
FIGS. 7A, 7B. Effects of reducing external Ca^2+. (A) Purified MAG-induced turning depends on [Ca^2+]o. Shown are distributions of turning angles in normal medium in the absence (solid circles) or presence of Sp-cAMPS (20 μM, solid squares), and in medium containing 1 μM [Ca^2+]o in the absence (open circles) or presence of Sp-cAMPS (20 μM, open squares), respectively. […]
8. […] Only growth cones with a net extension >5 μm over the one-hour period were scored.

B1: purified myelin-associated glycoprotein (MAG): Native MAG purified from myelin after extraction in 1% octylglucoside and DEAE-Sepharose separation (protein, UniProt P07722 20-626, looked up)
Myelin-associated glycoprotein: GHWGAWMPSSISAFEGTCVSIPCRFDFPDELRPAVVHGVWYFNSPYPKNYPPVVFKSRTQVVHESFQGRSRLLGDLGLRNCTLLLSTLSPELGGKYYFRGDLGGYNQYTFSEHSVLDIINTPNIVVPPEVVAGTEVEVSCMVPDNCPELRPELSWLGHEGLGEPTVLGRLREDEGTWVQVSLLHFVPTREANGHRLGCQAAFPNTTLQFEGYASLDVKYPPVIVEMNSSVEAIEGSHVSLLCGADSNPPPLLTWMRDGMVLREAVAESLYLDLEEVTPAEDGIYACLAENAYGQDNRTVELSVMYAPWKPTVNGTVVAVEGETVSILCSTQSNPDPILTIFKEKQILATVIYESQLQLELPAVTPEDDGEYWCVAENQYGQRATAFNLSVEFAPIILLESHCAAARDTVQCLCVVKSNPEPSVAFELPSRNVTVNETEREFVYSERSGLLLTSILTLRGQAQAPPRVICTSRNLYGTQSLELPFQGAHRLMWAKIGPVGAVVAFAILIAIVCYITQTRRKKNVTESPSFSAGDNPHVLYSPEFRISGAPDKYESEKRLGSERRLLGLRGEPPELDLSYSHSDLGKRPTKDSYTLTEELAEYAEIRVK
growth cone turning induced by the purified factor and its modulation: results similar to those with rMAG
